The results in this text go back to PMC3258126.

pKd: −log10 of the molar value.

The test system of the data set is rP20 WT (Bamboo mosaic virus satellite RNA (satBaMV, clone pBSF4)). Nature of the data set: EMSA.

The substance WT satBaMV RNA transcript had a pKd of 7.51.
